According to US20250361298A1 (CARTOGRAPHY BIOSCIENCES, published 2025):

Experiments:
[1] = biological target: T1, Cynomolgus LY6G6D ectodomain fused to mouse IgG2A Fc (monovalent display, knob-in-hole) (cynomolgus, UniProt O95868 20-104 (human entry)); experiment: SPR, Biacore 8K+, cyno LY6G6D-mouse Fc captured by anti-mouse antibody on CM5, antibody as analyte 50-0.7813 nM, 25 C
T1 construct: Same design as the human construct; Tags are not described; also called cyno LY6G6D-mouse Fc fusion antigen; cynomolgus monkey LY6G6D
T1 chain: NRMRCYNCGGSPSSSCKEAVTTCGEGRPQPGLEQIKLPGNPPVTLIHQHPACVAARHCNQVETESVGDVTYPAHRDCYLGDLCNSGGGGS
Description: (§1) SPR multipoint kinetic analyses against human and cynomolgus monkey LY6G6D was also performed. LY6G6D binding kinetics were performed via surface plasmon resonance (SPR) on a Biacore 8K+. A Mouse Antibody Capture Kit, type 2 (Cytiva 29215281) was used for amine coupling to a CM5 sensor chip (BR100530) and the immobilization was performed exactly according to the manufacturer's standard settings. To begin an SPR run, 7 startup cycles were run following chip immobilization to establish sensor stability. In these, LY6G6D-mouse Fc fusion antigen was first flowed into just flow cell 2 at 10 uL/min at a 5 nM concentration with a 120 sec contact time. 1×HBS-EP+ buffer, pH 7.6 was then flowed at 30 μL/min with a 420 sec contact time into the chip. Finally regeneration solution (10 mM Glycine-HCl pH 1.7) was flowed at 30 uL/min with a 120 sec contact time.
(§2) After this point, 16 analysis cycles were run, 8 first with human LY6G6D-mouse Fc fusion antigen and 8 next for cyno LY6G6D-mouse Fc fusion antigen. In both antigen formats, the antigen was captured at 10 uL/min at a 5 nM concentration diluted into 1×HBS-EP+ buffer, pH 7.6 with a 120 sec contact time. Next, selected antibodies diluted into 1×HBS-EP+ buffer, pH 7.6 were run as the analytes across a 7-point dilution series, 50 nM to 0.7813 nM with two-fold dilutions. A contact time of 300 sec followed by dissociation time of 1200 sec at a flow rate of 30 μL/min was used. Regeneration solution (10 mM Glycine-HCl pH 1.7) was flowed at 30 μL/min with a 120 sec contact time. Finally, a wait step of 60 sec with flow rate of 30 μL/min 1×HBS-EP+ buffer, pH 7.6 was used to re-establish sensor stability. These SPR binding studies were performed at 25° C.

[2] = biological target: T2, Human LY6G6D ectodomain fused to mouse IgG2A Fc (monovalent display, knob-in-hole) (human, biotinylated for BLI capture (site not stated)); experiment: SPR, Biacore 8K+, LY6G6D-mouse Fc captured by anti-mouse antibody on CM5, antibody as analyte 50-0.7813 nM, 25 C
T2 chain: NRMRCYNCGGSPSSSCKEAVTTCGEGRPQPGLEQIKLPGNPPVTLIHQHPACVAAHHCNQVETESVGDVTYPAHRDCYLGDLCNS
Description: as §1, §2

Binder | Kd [1] [nM] | koff [1] [s⁻¹] | kon [1] [M⁻¹ s⁻¹] | Kd [2] [nM] | koff [2] [s⁻¹] | kon [2] [M⁻¹ s⁻¹]
CB21-498-142 (antibody, V domains shown) VH: EVQLVESGGGLVQPGGSLRLSCAASGFTFSSYAMNWVRQAPGKGLEGVSGISGSGGRIYYAESVKGRFQISRDNSKSTFYLQMNSLRAEDTAVYYCAKDLDVWGKGTTVTVSS VL: DVVMTQTPLSSPVTLGQSASISCRSSQSLVHSDANTYLNWLHQRPGQPPRLLIYKISNRFSGVPDRFSGSGSGTDFTLKISRVEAEDVGVYYCMQATQFPLTFGGGTKLEIK | 5.57 | 0.000448 | 80500 | 3.2 | 0.00031 | 96700
CB21-499-177 (antibody, V domains shown) VH: EVQLVESGGGVVQPGRSLRLSCAASGFTFSSYGMHWVRQAPGKGLEWVAVIWYDASNKEYAPSVKGRFTISRDNSKNTLYLQMNSLRAEDTAIYYCARPGEGDYWGQGTLVTVSS VL: DIQMTQSPSSLSASVGDRVTITCRASQGVRNDFGWFQQKPGKAPKRLIYGASSLQSGVPSRFSGSGSGTEFTLTISSLQPEDFATYYCLQQNSYPWTFGQGTKLEIK | 0.9 | 0.000149 | 166000 | 0.385 | 7.12e-05 | 185000
